From patent publication US20220227872A1 (LUDWIG INSTITUTE FOR CANCER RESEARCH, published 2022)

B1: human tumor endothelial marker 1 (TEM1) on cells (receptor)
chain: QDPWAAEPRAACGPSSCYALFPRRRTFLEAWRACRELGGDLATPRTPEEAQRVDSLVGAGPASRLLWIGLQRQARQCQLQRPLRGFTWTTGDQDTAFTNWAQPASGGPCPAQRCVALEASGEHRWLEGSCTLAVDGYLCQFGFEGACPALQDEAGQAGPAVYTTPFHLVSTEFEWLPFGSVAAVQCQAGRGASLLCVKQPEGGVGWSRAGPLCLGTGCSPDNGGCEHECVEEVDGHVSCRCTEGFRLAADGRSCEDPCAQAPCEQQCEPGGPQGYSCHCRLGFRPAEDDPHRCVDTDECQIAGVCQQMCVNYVGGFECYCSEGHELEADGISCSPAGAMGAQASQDLGDELLDDGEDEEDEDEAWKAFNGGWTEMPGILWMEPTQPPDFALAYRPSFPEDREPQIPYPEPTWPPPLSAPRVPYHSSVLSVTRPVVVSATHPTLPSAHQPPVIPATHPALSRDHQIPVIAANYPDLPSAYQPGILSVSHSAQPPAHQPPMISTKYPELFPAHQSPMFPDTRVAGTQTTTHLPGIPPNHAPLVTTLGAQLPPQAPDALVLRTQATQLPIIPTAQPSLTTTSRSPVSPAHQISVPAATQPAALPTLLPSQSPTNQTSPISPTHPHSKAPQIPREDGPSPKLALWLPSPAPTAAPTALGEAGLAEHSQRDDRWLLVALLVPTCVFLVVLLALGIVYCTRCGPHAPNKRITDCYRWVIHAGSKSPTEPMPPRGSLTGVQTCRTSV
notes: Endogenous on A673 and SK-N-AS cells, or full length hTEM1 ORF (NM_020404.3) in pTagGFP2-N transiently expressed in HEK293T cells; also called hTEM1; human TEM1
B2: anti-TEM1 scFv-Fc fusion 2B11 (Fc fusion)
VH: EVQLVETGGGLVKPGGSLRLSCAASGFTFNTYTMNWVRQAPGKGLEWVSSISSSSTYIYYADSVKGRFTISRDNAKNSLYLQMNSLRAEDTAVYYCAKSIVGATHDAFDIWGQGTMVTVSS
VL: DIQMTQSPPTLSASVGDRVTITCRASQSISRWLAWYQQKPGKAPNLLIYDASNLQSGVPSRFSGSGSGTEFTLTISSLQPDDFGTYYCQQYKNYSPTFGQGTKLEIK
notes: also called 2B11 scFv-Fc
B3: murine tumor endothelial marker 1 (TEM1) on cells (receptor)
chain: QVPWTPEPRAACGPSSCYALFPRRRTFLEAWRACRELGGNLATPRTPEEAQRVDSLVGVGPANGLLWIGLQRQARQCQPQRPLRGFIWTTGDQDTAFTNWAQPATEGPCPAQRCAALEASGEHRWLEGSCTLAVDGYLCQFGFEGACPALPLEVGQAGPAVYTTPFNLVSSEFEWLPFGSVAAVQCQAGRGASLLCVKQPSGGVGWSQTGPLCPGTGCGPDNGGCEHECVEEVDGAVSCRCSEGFRLAADGHSCEDPCAQAPCEQQCEPGGPQGYSCHCRLGFRPAEDDPHRCVDTDECQIAGVCQQMCVNYVGGFECYCSEGHELEADGISCSPAGAMGAQASQDLRDELLDDGEEGEDEEEPWEDFDGTWTEEQGILWLAPTHPPDFGLPYRPNFPQDGEPQRLHLEPTWPPPLSAPRGPYHSSVVSATRPMVISATRPTLPSAHKTSVISATRPPLSPVHPPAMAPATPPAVFSEHQIPKIKANYPDLPFGHKPGITSATHPARSPPYQPPIISTNYPQVFPPHQAPMSPDTHTITYLPPVPPHLDPGDTTSKAHQHPLLPDAPGIRTQAPQLSVSALQPPLPTNSRSSVHETPVPAANQPPAFPSSPLPPQRPTNQTSSISPTHSYSRAPLVPREGVPSPKSVPQLPSVPSTAAPTALAESGLAGQSQRDDRWLLVALLVPTCVFLVVLLALGIVYCTRCGSHAPNKRITDCYRWVTHAGNKSSTEPMPPRGSLTGVQTCRTSV
notes: also called mTEM1; murine TEM1

Legend:
[1] = target: T1, anti-TEM1 scFv-Fc fusion 3B6; assay: FACS on cell lines
T1 construct: also called 3B6 scFv-Fc
T1 sequence (VH, as listed by the source, chain 1 of 2): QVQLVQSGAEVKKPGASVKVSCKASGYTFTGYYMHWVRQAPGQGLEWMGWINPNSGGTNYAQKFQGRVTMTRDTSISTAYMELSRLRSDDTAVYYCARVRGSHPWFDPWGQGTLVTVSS
T1 sequence (VL, as listed by the source, chain 2 of 2): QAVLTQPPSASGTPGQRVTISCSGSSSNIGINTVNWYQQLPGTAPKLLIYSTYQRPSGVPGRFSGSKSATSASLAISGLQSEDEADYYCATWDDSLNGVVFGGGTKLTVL
Protocol: (§1) A673, human Ewing's sarcoma; SK-N-AS, human neuroblastoma; 2H11, murine tumor vascular endothelium; TC1, murine lung adenocarcinoma; HEK293-6E, human embryonic kidney; HT-1080, human fibrosarcoma; MDA-MB-231, human mammary carcinoma; MS1, murine pancreatic islet endothelium.
(§2) Adherent cells were detached using 10 mM EDTA, counted and resuspended in fresh, complete culture medium. All subsequent steps were performed on ice. […] After washing three times with FACS buffer, the secondary antibody, Alexa Fluor 647 AffiniPure Goat Anti-Human IgG (Jackson Immunoresearch, #109-605-098, 1:200 dilution) was added. Following incubation for 30 min the cells were washed again three times. Immediately before data acquisition, dead cells were stained with 4′,6-Diamidino-2-phenylindole (DAPI, 1:2000 dilution). Data was acquired using an LSR-II flow cytometer equipped with […] software (BD Biosciences). Data analysis and plotting were carried out using FlowJo v10 (FlowJo LLC).

[2] = target: B1; assay: FACS on cell lines
Protocol: as §1, §2

[3] = target: B3; assay: FACS, scFv-Fc 2 µg/ml on human and murine cell lines
Protocol: as §1, §2

[4] = target: T1, anti-TEM1 scFv-Fc fusion 3B6; assay: as above
Protocol: as §1, §2

B1: binds [1].

B2: binds [2]; binds [3].

B3: binds [4].
